Assay results: patent US20210395731, “METHOD AND COMPOSITION FOR INHIBITING GROWTH OF BACTERIUM” (City University of Hong Kong, published 2021)

Legend:
Hfq [1] = target: T1, Hfq (Pseudomonas aeruginosa, UniProt Q9HUM0 Q9HUM0:1-82); experiment: EMSA; apparent Kd, Hill fit; two cooperative binding sites; 50 mM Tris, 250 mM NH4Cl pH 7.5, tRNA, 37 C; exact value in figure only; settings: tags: His tag (pET28a, TALON purified, anti-His6 used), chain copies: 6 inferred, label: 32P-UTP internal
Hfq [2] = target: T1, Hfq; experiment: EMSA; apparent Kd, Hill fit; 50 mM Tris, 250 mM NH4Cl pH 7.5, tRNA, 37 C; exact value in figure only; settings: tags: His tag (pET28a, TALON purified, anti-His6 used); chain copies: 6 inferred; label: 32P-UTP internal; I-shaped terminator

T1 sequence (Q9HUM0 whole entry, one chain of several): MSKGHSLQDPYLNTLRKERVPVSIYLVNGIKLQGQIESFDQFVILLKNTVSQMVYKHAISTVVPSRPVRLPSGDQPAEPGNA

B1: IGR2780 sRNA (ssRNA)
RNA: GCUGUACAUCCCUGGAUCCUUUCCCGGCCUGCUCCACGCGGCCGGGAUUUUUUUUGCCC
For B1, the Kd (Hfq [1]; terminator stem-loop with poly(U) stretch) was less than 150 nM.

B2: AS2779 sRNA (ssRNA)
RNA: GCGAACCCCAAGGGUAUUUCCCGACCAGCUCCCCCGCGGUCGGGAUUUUUUUUUGCCUGUCGCUCAGCGCUUCGGGUCGAAGGGCGAAUAGCCCCGCCGGCGCAGGCUCGCCAGGGGCGCGAACAGCGG
In the case of B2, the Kd (Hfq [1]; I-shaped terminator, canonical terminator in the middle) is reported as less than 150 nM.

B3: AS1974 sRNA (ssRNA)
RNA: GAAUGUUCUUAAAUAUCCUCAAGCGGUUGCGCGGCCAGGCACUGGUCGAGGAGAUGCACCAGGGUGGCCUGUUCCACCGGGGUGAGCGGGGCAAACAACUCGUCAUGCACGCGUGACAUGAUGGCCUC
With B3 the Kd (Hfq [2]) was less than 150 nM.
